Data from patent US20210388110A1 (published 2021).
Positions count from the first letter of the chain named. Values joined by “and” are separate entries in the source; they are usually repeats but may differ in a detail not shown here. Equal entries are not always repeated.

B1: GCH003-G1dh/none-Hi-Kn010G3/L0000-k0 (antibody, human IgG1, kappa)
heavy: not shown
chain: EPKSSDKTHTCPPCPAPELLGGPSVFLFPPKPKDTLMISRTPEVTCVVVDVSHEDPEVKFNWYVDGVEVHNAKTKPREEQYNSTYRVVSVLTVLHQDWLNGKEYKCKVSNKALPAPIEKTISKAKGQPREPQVCTLPPSRDELTKNQVSLWCLVKGFYPSDIAVEWESNGQPENNYKTTPPVLDSDGSFFLYSKLTVDKSRWQQGNVFSCSVMHEALHNRYTQKSLSLSP
light: DIVMTQSPLSLPVTPGEPASISCRSSQSLVHSNRNTYLHWYQQKPGQAPRLLIYKVSNRFSGVPDRFSGSGSGTDFTLKISRVEAEDVGVYYCGQGTQVPYTFGQGTKLEIKRTVAAPSVFIFPPSDEQLKSGTASVVCLLNNFYPREAKVQWKVDNALQSGNSQESVTEQDSKDSTYSLSSTLTLSKADYEKHKVYACEVTHQGLSSPVTKSFNRGEC
notes: single-arm antibody
B2: GCH005-G1dh/none-Hi-Kn010G3/L0000-k0 (antibody, human IgG1, kappa)
heavy: not shown
chain: B1 chain
light: B1 light
notes: single-arm antibody
B3: GCH008-G1dh/none-Hi-Kn010G3/L0000-k0 (antibody, human IgG1, kappa)
heavy: not shown
chain: B1 chain
light: B1 light
notes: single-arm antibody
B4: GCH012-G1dh/none-Hi-Kn010G3/L0000-k0 (antibody, human IgG1, kappa)
heavy: not shown
chain: B1 chain
light: B1 light
notes: single-arm antibody
B5: GCH022-G1dh/none-Hi-Kn010G3/L0000-k0 (antibody, human IgG1, kappa)
heavy: not shown
chain: B1 chain
light: B1 light
notes: single-arm antibody
B6: GCH023-G1dh/none-Hi-Kn010G3/L0000-k0 (antibody, human IgG1, kappa)
heavy: not shown
chain: B1 chain
light: B1 light
notes: single-arm antibody
B7: GCH025-G1dh/none-Hi-Kn010G3/L0000-k0 (antibody, human IgG1, kappa)
heavy: not shown
chain: B1 chain
light: B1 light
notes: single-arm antibody
B8: GCH026-G1dh/none-Hi-Kn010G3/L0000-k0 (antibody, human IgG1, kappa)
heavy: not shown
chain: B1 chain
light: B1 light
notes: single-arm antibody
B9: GCH032-G1dh/none-Hi-Kn010G3/L0000-k0 (antibody, human IgG1, kappa)
heavy: not shown
chain: B1 chain
light: B1 light
notes: single-arm antibody
B10: TR01H099-E22Hh/none-Hi-Kn010G3/L0011-k0 (antibody, human IgG1, kappa, L234A L235A, N297A)
heavy: QVQLVESGGGLVQPGRSLRLSCAASGFTFSNAWMHWVRQAPGKGLEWVAQIKDKSQNYAQYYAESVKGRFTISRDDSKNSLYLQMNSLKTEDTAVYYCRYVHYAAGYGVDAWGQGTTVTVSSASTKGPSVFPLAPSSKSTSGGTAALGCLVKDYFPEPVTVSWNSGALTSGVHTFPAVLQSSGLYSLSSVVTVPSSSLGTQTYICNVNHKPSNTKVDKKVEPKSCDKTHTCPPCPAPEAAGGPSVFLFPPKPKDTLMISRTPEVTCVVVDVSHEDPEVKFNWYVDGVEVHNAKTKPREEQYASTYRVVSVLTVLHQDWLNGKEYKCKVSNKALPAPIEKTISKAKGQPREPQVYTLPPSRCELTKNQVSLSCAVKGFYPSDIAVEWESNGQPENNYKTTPPVLDSDGSFFLVSKLTVDKSRWQQGNVFSCSVMHEALHNHYTQKSLSLSPDYKDDDDK
chain: B1 chain
light: B1 light with S28P
notes: one-arm antibody (single Fab) with Fab-less hinge-Fc chain Hi-Kn010G3
B11: TR01H101-E22Hh/none-Hi-Kn010G3/L0011-k0 (antibody, human IgG1, kappa, L234A L235A, N297A)
heavy: B10 heavy with Q60V
chain: B1 chain
light: B1 light with S28P
notes: as for B10
B12: TR01H102-E22Hh/none-Hi-Kn010G3/L0011-k0 (antibody, human IgG1, kappa, L234A L235A, N297A)
heavy: B10 heavy with Q60T, Y62F
chain: B1 chain
light: B1 light with S28P
notes: as for B10
B13: TR01H103-E22Hh/none-Hi-Kn010G3/L0011-k0 (antibody, human IgG1, kappa, L234A L235A, N297A)
heavy: B10 heavy with Q60T, Y62G
chain: B1 chain
light: B1 light with S28P
notes: as for B10
B14: TR01H104-E22Hh/none-Hi-Kn010G3/L0011-k0 (antibody, human IgG1, kappa, L234A L235A, N297A)
heavy: B10 heavy with Q60T, Y62I
chain: B1 chain
light: B1 light with S28P
notes: as for B10
B15: TR01H105-E22Hh/none-Hi-Kn010G3/L0011-k0 (antibody, human IgG1, kappa, L234A L235A, N297A)
heavy: B10 heavy with Q60T, Y62L
chain: B1 chain
light: B1 light with S28P
notes: as for B10
B16: TR01H106-E22Hh/none-Hi-Kn010G3/L0011-k0 (antibody, human IgG1, kappa, L234A L235A, N297A)
heavy: B10 heavy with Q60T, Y62P
chain: B1 chain
light: B1 light with S28P
notes: as for B10
B17: TR01H107-E22Hh/none-Hi-Kn010G3/L0011-k0 (antibody, human IgG1, kappa, L234A L235A, N297A)
heavy: B10 heavy with Q60T, Y62Q
chain: B1 chain
light: B1 light with S28P
notes: as for B10
B18: TR01H108-E22Hh/none-Hi-Kn010G3/L0011-k0 (antibody, human IgG1, kappa, L234A L235A, N297A)
heavy: B10 heavy with Q60T, Y62T
chain: B1 chain
light: B1 light with S28P
notes: as for B10
B19: TR01H109-E22Hh/none-Hi-Kn010G3/L0011-k0 (antibody, human IgG1, kappa, L234A L235A, N297A)
heavy: B10 heavy with Q60T, Y62V
chain: B1 chain
light: B1 light with S28P
notes: as for B10
B20: hCE115HA-E22Hh/none-Hi-Kn010G3/L0000-k0 (antibody, human IgG1, kappa, L234A L235A, N297A)
heavy: B10 heavy with L11V, D53A, Q56N, Q60T, A104G, G106Y
chain: B1 chain
light: B1 light
notes: as for B10
B21: hCE115HAa-E22Hh/none-Hi-Kn010G3/L0000-k0 (antibody, human IgG1, kappa, L234A L235A, N297A)
heavy: B10 heavy with L11V, R16G, D53A, Q56N, Q60T, A104G, G106Y
chain: B1 chain
light: B1 light
notes: as for B10
B22: rCE115H-E22Hh/none-Hi-Kn010G3/L0000-k0 (antibody, human IgG1, kappa, L234A L235A, N297A)
heavy: EVQLVETGGSLVQPGKSLKLTCATSGFTFSNAWMHWVRQSPEKQLEWVAQIKAKSNNYATYYAESVKGRFTISRDDSKSNIYLQMNSLKEEDTAVYYCRYVHYGAYYGVDAWGQGTSVTVSSASTKGPSVFPLAPSSKSTSGGTAALGCLVKDYFPEPVTVSWNSGALTSGVHTFPAVLQSSGLYSLSSVVTVPSSSLGTQTYICNVNHKPSNTKVDKKVEPKSCDKTHTCPPCPAPEAAGGPSVFLFPPKPKDTLMISRTPEVTCVVVDVSHEDPEVKFNWYVDGVEVHNAKTKPREEQYASTYRVVSVLTVLHQDWLNGKEYKCKVSNKALPAPIEKTISKAKGQPREPQVYTLPPSRCELTKNQVSLSCAVKGFYPSDIAVEWESNGQPENNYKTTPPVLDSDGSFFLVSKLTVDKSRWQQGNVFSCSVMHEALHNHYTQKSLSLSPDYKDDDDK
chain: B1 chain
light: B1 light
notes: as for B10
B23: rCE115H-E22Hh/none-Hi-Kn010G3/L0000vk1-k0 (antibody, human IgG1, kappa, L234A L235A, N297A)
heavy: B22 heavy
chain: B1 chain
light: DIQMTQSPSSLSASVGDRVTITCRSSQSLVHSNRNTYLHWYQQKPGKAPKLLIYKVSNRFSGVPSRFSGSGSGTDFTFTISSLQPEDIATYYCGQGTQVPYTFGQGTKVEIKRTVAAPSVFIFPPSDEQLKSGTASVVCLLNNFYPREAKVQWKVDNALQSGNSQESVTEQDSKDSTYSLSSTLTLSKADYEKHKVYACEVTHQGLSSPVTKSFNRGEC
notes: as for B10
B24: TR01H015-E22Hh/none-Hi-Kn010G3/TR01L006-k0 (antibody, human IgG1, kappa, L234A L235A, N297A)
heavy: B10 heavy with D53G, Q56N, Q60T, D75A, L81I, A104S, G106S, A111I
chain: B1 chain
light: B1 light with R24Q, S25A, Q27E, Q42L, A48S, R50Q, L109V, K112E
notes: as for B10
B25: rCE115H-E22Hh/none-Hi-Kn010G3/rCE115L-k0 (antibody, human IgG1, kappa, L234A L235A, N297A)
heavy: B22 heavy
chain: B1 chain
light: DVVMTQTPVSMSVSLGGQVSISCRSSQSLVHNNGNTYVSWYIQKPSQSPQLLIYKVSNRFSGISDRFSGSGSGTDFTLKISRVEPDDLGVYYCGQGTQDPYTFGAGTKLELKRTVAAPSVFIFPPSDEQLKSGTASVVCLLNNFYPREAKVQWKVDNALQSGNSQESVTEQDSKDSTYSLSSTLTLSKADYEKHKVYACEVTHQGLSSPVTKSFNRGEC
notes: one-arm antibody (single Fab) with Fab-less hinge-Fc chain Hi-Kn010G3; also called rCE115H-E22Hh//-Hi-Kn010G3/rCE115L-k0

Each binder was assayed against T1, soluble human GPC3 (human, UniProt P51654 25-563, limits assumed) (assay: SPR (Biacore), single-arm antibody, soluble human GPC3).
T1 construct: also called glypican 3
T1 sequence (P51654 other isoform, or with tags, fused parts or gaps limits assumed, form in doubt): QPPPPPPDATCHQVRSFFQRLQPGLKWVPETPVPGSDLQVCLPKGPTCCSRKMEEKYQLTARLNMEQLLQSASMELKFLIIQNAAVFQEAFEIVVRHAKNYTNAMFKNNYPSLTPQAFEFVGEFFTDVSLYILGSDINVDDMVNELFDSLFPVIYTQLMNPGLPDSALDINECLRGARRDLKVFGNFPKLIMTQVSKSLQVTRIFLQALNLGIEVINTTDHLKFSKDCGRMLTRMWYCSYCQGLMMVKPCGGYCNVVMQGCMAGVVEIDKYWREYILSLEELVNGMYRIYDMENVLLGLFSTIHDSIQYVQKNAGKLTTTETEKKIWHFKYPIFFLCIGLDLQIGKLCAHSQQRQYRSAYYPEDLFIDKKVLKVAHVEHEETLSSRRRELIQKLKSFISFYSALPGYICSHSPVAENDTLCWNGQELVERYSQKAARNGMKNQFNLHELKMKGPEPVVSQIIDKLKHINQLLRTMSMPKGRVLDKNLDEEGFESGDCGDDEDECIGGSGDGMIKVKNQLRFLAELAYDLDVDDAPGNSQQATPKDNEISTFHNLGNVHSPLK

**Q.** For B1, which Kd is on record?
**A.** 5.2 nM

**Q.** How did the Kd turn out when B2 was run?
**A.** 5.32 nM

**Q.** How did the Kd turn out when B3 was run?
**A.** 5.55 nM

**Q.** Which Kd does the source give for B4 here?
**A.** 5.4 nM

**Q.** B5 was tested. Which Kd did it give?
**A.** 4.92 nM

**Q.** How did the Kd turn out when B6 was run?
**A.** 4.94 nM

**Q.** Which Kd does the source give for B7 here?
**A.** 5.05 nM

**Q.** Which Kd does the source give for B8 here?
**A.** 5.17 nM

**Q.** How did the Kd turn out when B9 was run?
**A.** 5.74 nM

Each binder was assayed against T2, soluble human CD3ε chain (human, UniProt P07766 23-126, limits assumed) (assay: SPR (Biacore), soluble human CD3ε chain).
T2 construct: also called human CD3 epsilon chain
T2 sequence (P07766 23-126 limits assumed): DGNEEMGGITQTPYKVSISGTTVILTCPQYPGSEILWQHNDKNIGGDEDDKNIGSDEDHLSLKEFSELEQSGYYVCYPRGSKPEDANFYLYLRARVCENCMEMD

**Q.** How did the Kd turn out when B10 was run?
**A.** 77.4 nM

**Q.** Which Kd does the source give for B11 here?
**A.** 78.7 nM

**Q.** Which Kd does the source give for B12 here?
**A.** 85.4 nM

**Q.** How did the Kd turn out when B13 was run?
**A.** 77.2 nM

**Q.** Which Kd does the source give for B14 here?
**A.** 82.6 nM

**Q.** With B15 as the binder, how does the Kd read?
**A.** 69.5 nM

**Q.** With B16 as the binder, how does the Kd read?
**A.** 100 nM

**Q.** How did the Kd turn out when B17 was run?
**A.** 69.1 nM

**Q.** For B18, which Kd is on record?
**A.** 69.8 nM

**Q.** B19 was tested. Which Kd did it give?
**A.** 70.6 nM

**Q.** Which Kd does the source give for B20 here?
**A.** 124 nM

**Q.** Which Kd does the source give for B21 here?
**A.** 108 nM

**Q.** Which Kd does the source give for B22 here?
**A.** 80 nM

**Q.** With B23 as the binder, how does the Kd read?
**A.** 85.2 nM

**Q.** For B24, which Kd is on record?
**A.** 93 nM

**Q.** Which Kd does the source give for B25 here?
**A.** 124 nM and 138 nM
